Test: yeast display, Sf9 membrane polyspecificity reagent, FACS + sequencing; frameworks hold sequencing errors
Outline: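 Galactose induction of a Saccharomyces cerevisiae BJ5465 synthetic nanobody display library ran 36–48 hours. The cells were then stained for 1 hour at 4 °C with 10% biotinylated, detergent-solubilized Sf9 membrane reagent, pulled down on streptavidin microbeads and FACS-sorted into low and high (top ~1%) gates on expression and reagent-binding fluorescence. Labels for polyreactivity follow the gate of origin.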

Sequence	polyreactivity (PSR sort gate)
QVQLVESGGGLVQAGGSLRLSCAASGYTFALYAMGWYRQAPGKERELVAAITWNGGSTYYADSVKGRFTISRDNAKNTVYLQMNSLKPEDTSVYYCNVESSQSSSGFDYWGQGTQVTVSL	low polyreactivity
QVQLVESGGGLVQAGGSLRLSCAASGNIFPIYPMGWYRQAPGKERELVASIYRGGTTYYADSVKGRFTISRDNAKNTVYLQMNSLKPEETAVYYCAVYSPRLRRVHTRGYWGQGTQVTVSS	high polyreactivity
QVQLVESGGGLVQAGGSLRLSCAASGSTFVYNARGWYRQAPGKERELVAAISRRGGSTYYADSVKGRFTISRDNAKNTVYLQMNSLKPEDTAVYYCAADQYRTNSYRYDYWGQGTQVTVSS	low polyreactivity
QVQHVESGGGLVQAGGSLRLSCAASGIFFFYGMGWYRQAPGKQRQLLAVISTGDTTDYADSVKGRSTISRDNAKNTVYLQMNSLIPEDTAVYYCAATGRSRSYSWSKLNYWGQGTQVTVSS	low polyreactivity
QVRLVESGGGLVQAGGSLRLSCAASGRIFLYNARGWYRQAPGKERELVAAINLSDVDTYYADSVKGRFTISRDNAKNTVYLQMNSLKPEDTAVYYCAADGIYWSTIGYYWGQGTQVTVSS	low polyreactivity
QVQLVESGGGLVQAGGSLRLSCAASGSSFPGYAMGWYRKAPGKERELVATSTYSDGSTYYADSVKGRFTISRDNAKNTVYLQMNSLKPEDTAVYYCAVTYWWYYGYDYWGQGTQVTVSS	low polyreactivity
QVQLVETGGGLVQAGGSLRLICAASGSTFQYYAMGWSRQAPGKERELVAAITHSGTRTYYADSVKGRFTISRDNAKNTVYLQMYRLKPEDTSVYYCAALYTWYRYYRLDYWGQGTQVTVSS	high polyreactivity
QDQLVESGGGLVQAGGSLRLSCAASGSTFDSYDMGWYRQAPGKERELVAAISGGGGTYYADSVKGRFTISRDNAKNTVYLQMNSLKPEDTAVYYCAARTNGWPGMGYWGQGTQVTVSS	high polyreactivity
QVQLVESGGGLVQAGGSLRLSCSASGSIFDAYAMGWYRQAPGKEREMVAAISKGGTRTYYADSVKGRFTISRDNAKNTVYLQMNSLIPEDTAFYYCNSYYRREPDDGDYDYWGQGTQVTVSS	high polyreactivity
QVQLVESGGGLVQAGGSLRLSCAASGSTFYANAMGWYRQAPGKERELVAAITRSGAGTYYADSVKGRFTISRDNAKNTVYLQMNSLKPEDTAVYYCAKRTKTPTGYVWGGYDYWGQGTQVTVSS	high polyreactivity
QVQLVESGGGLVQAGGSLRLSCAASGRIFRLYAMGWYRQAPGKEREFVATITWIGGRTYYADSVTGRFTISRDNAKNTVYLQMNSLKPEDTAVYYCAADPGYTYEYWGQGTQVTVSS	low polyreactivity
QVQLVESGGGLVQAGGSLRLSCAASGFIFSYYTMGWYRQAPGKESELVAAISYSGGSTDYADSVKWRFTISRDNAKNTVYLQMNSLKPEDTAVYYCNADYSFWAEPYWEYGYDYWGQGTQVTVSS	low polyreactivity
QVQLVESGGGLVQAGGSLRLSCAASGFTFYYYAMGWYRQAPGKERELVAAISRSGGSTYYADSVKGRFTISRDNAKNTVYLQMNSLKPEDTAVDYCNKGSRWLRGLDSWGQGTQVTVSS	high polyreactivity
QVQLVQSGGGLVQAGGSLRLRCAASGRIFTPYAMGWNRQAPGQDRELVAAISASGTRTYYADSVKGRFTISRDNAKNTVYLQMKSLQAEDSAVYSCAAYKSGEPSDYWGQGTQVTVSS	high polyreactivity
QVQLVESGGGLVQAGGSLRISCAASGRIFRVNGMGWSRQEPGKESELVAAIRRSGGSTYYADSVKGRFTISRDYAKKSVYLQMNSLKPEDTAVYFCAAAVRQSSYTRYDSWGQGTQVTVSS	high polyreactivity
QVQLVESGGGLVQAGGSLRLSCDASGSIFYGYTMGWYRQDPGKERELVAAIRKSGGSTNYADSVKGRFTISRDNAKNTVYLQMNSLKPEDTAVYYCAASYYRGRGYYWGQGTQVTVSS	high polyreactivity
QVQLEESGGGLVQAGGSLRLTCAASGRIFFQNTIGWYRQAPGQERELVAAITSDGSTYYADSVKGRFTISRDNAKNTVYLQMNSLKPEDTAVYYCAAEISYRWWYKLGFTSFDYWGQGTQVTVSS	low polyreactivity
QVQRVESGGGLVQAGGSLRLSCAASGRTFYPYLMGWYRQSPGKERELVARIRWSGSSTYYADSVKGRFTISRDNAKNTVYFQMNSLKPEDTAVYYCNARPSWYVFGSSVHSGMGYWGQGTQVTVSS	high polyreactivity
QVQLVESGGGLVQAGGSLRLSCAASGSTFPPNAMGWYRQAPGKERELVAGINGSGGRTYYADSVKGRFTISRDNAKNTVYLQMNSMKPEDTAVYYCATRLRSEYYYNKWYYHWGQGTQVTVSS	high polyreactivity
QVQLVESGGGLVQAGGSLRLSCAASGGTFVRYVMGWYRPAPGKERELVAAISGSGGSTYYADTVKGRFTISRDNAKNTVYLQMNSLKPEASAVYYCASVYYWSKFYYWGQGTQVTVSS	high polyreactivity
QVQLVESGGGLVQAGGSLRLSCAASGRTFSKYAMGWYRQAPGKERELVAAITSGGGTYYADSVKGRFTISRDNAKNTVYLQMNSLKPEDTAVYYCAVSVTTVSTYDYWGQGTQVTVSS	low polyreactivity
QVQLVESGGGLVQAGGSLRLSCAASGGTFQRYAMGWYRQAPGKERELVAAISSGGRTYYADSVKGRFTISRDNAKNTVYLQMNSLKAVDTAVYYCNAVGWTRYWRIGWSAYYYWGQGTQETVSS	high polyreactivity

Sequence	polyreactivity (PSR sort gate)
QDQLVESGGGLVQAGGSLRLSCAASGRIFVHNAMGWYRQAPGKERELVAAIYQNGGRTYYADSVKGRFTISRDNAMNTVYLQMNSLKPEDTAVYYCAAGQARAGLIGGYWGQGTQVTVSS	high polyreactivity
QVQLVESGGGLVQAGGSLRLSCAASGSTFTTYAMGWYRQAPGKERELVAAISNNGGRTFYADSVKGRFTISRDNAKNTVYLQMNSLKPEDTAVYYCAAEYGLYAPGYYYWGQGTQVTVSS	low polyreactivity
QVQLVESGGGLVQAGGSLRLSCAASGLIFRRYAMGRNRQAHGKERELVAAISRSGGSTYYADSVKGRFTISRDNEKNTVYLQMNSLKPEDTAVYYCAADYAPVFWGDYKYDYWGQGTQVTVSS	high polyreactivity
QVQLVESRGGLVQAGGSLRLSFAASGFTFGSYSMVWYRQAPGKERELVADITRRGDNTYYADSVKGRFTISRDNAKNTVYLQMNSLKPEDSAVYYCNAAKGGRYPDYDYWGQGTQVTVSS	high polyreactivity
QVQLVESGGGLVQAGGSLRLSCAASGFTFYRNAMGWYRQAPGKERELVAAISWSGDSTYYADSVKGRFTISRDNAKNTVYLQMNSLKPEDTAVYYCDKERYFYYPWVTTYTSNYWGQGTQVTVSS	low polyreactivity
QDQLVESGGGLVQAGGSLRLSCAASGFTFGDYAMGWYRQEPGKERELVAAISWSGSNTYYADSVKGRFTISRDNAKNTVYLQMNSLKPEDTAVYYCNADYDPEDMDYWGQGTQVTVSS	low polyreactivity
QVQLVESGGGLVQAGGSLRLSCAASGRTFGPYAMGWYRQAPGKERELVAAISSSEGSTYYADSVKGRFTISRDNAKNTVYLQMNSLKPEDTAVYYCNARYYLWSTTRWYGYDYWGQGTQVTVSS	high polyreactivity
QVQLVESGGGLVQAGGSLRLSCAAWSIFYLNAMGLYRQAPGKERELVAAISWGGGSTNYADSVKGRFTISRDNAKNTVYLQMNSLKPEDTAVYYCARTPESLSAREFNYWGQGTEVTVSS	low polyreactivity
QVQLVESGGGLVQAGGSLRLSCAASGSIFWQYAMGWYRQAPGTERELVAAISSRGGSTYYADSVKGRFTISRDNAKNTVYLQMNTLKPEDTAVYYCAAHSVVRSYAARDSGYDYWGQGTQVTVSS	high polyreactivity
QDQLVESGGGLVQAGGSLRLSCAASGITFRWYAMGWYRQAPGKERELVAAITSVDSTDYADSVKGRFTISRDNAKNTVYLQMNSLKPEDTAVYYCAARIGTGVLPGRGANSHMDYWGQGTQVTVSS	low polyreactivity
QVQLVESGGGLVQAGGSLRLSCAASGITFAYNAMGSYRQAPGKERELVARITSGGRTYYADSVKGRFTISRDNAKNTVYLQMNSLKPEDTAVYYCNAKEGSRYRKYDYWGQGTQVTVSS	low polyreactivity
QVQLVESGGRLVQAGGSLRLSCAATGSTFYKNPMGRYRHAPRKEREVVAAISTSGGSTYYADSLKGRFTISRDNAKNTVYLHMNRLKPEDTAVNYCATRRRIPSSCYYDNDYWGQGTQVTVSS	high polyreactivity
QVQLVESGGGLVQAGGSLRLSCAASGRTFGGYAMGWYRQAPGKERELVAAISYSGGSTYYADSVKGRFTISRDNAKNTVYLQMNSLKPEDTAVYYCAADGYDAYYWGQGTQVTVSS	low polyreactivity
QVQLVESGGGLVQAGGSLRLSCAASGFILKPNAMGWYRQAPGKERELVAAISWSSGSTYYADSVKGRFTISRDNAKNTVYLQMNRLKPEDTAVYYCAADYFVYPDDWYDYWGQGTQVTVSS	low polyreactivity
QVQLVESGGGLVQAGGSLRLRCAASGIIFTDYAMGWYRQAPGKERELVAAISSGGGSTYYAHSVKGRFTISRDNAKNTVYFLMNSLKPDVTAVYYCAAEGYLISGAGDYLYDYYWGQGTQVTVSS	high polyreactivity
QVQLVESGGGLVHAGVSLRISCAASGRIFKQYAMGWYRQAPGNERELVAAISVRGGITYYADSVKGRFTISRYHAKNTVYLQMKSLNPEDTAVYYCAKRSYRNHTYDYWGQGTQVTVSS	low polyreactivity
QVQLVESGGGLVQAGGSLRLSCAASGFTFWYYAMGWYRQAPGKERELVATITSGDSTKYADSVKGSFTISRDNAKNTVFLQMNSLNPEDNAVYYCAAEKVLPFIGYDYWGQGTQVTVSS	low polyreactivity
QVQLVESGGGLVQAGGSLRLSCAASGRTFIPYAMGWYRQAPGKERELVAAISWSGGGTYYADSVKGRFTISRDNAKNTVYLQMNSLKPEDTAVYYCAAEYWDSYGYWTFDYWGQGTQVTVSS	high polyreactivity
QVQLVESGGGLVQAGGSLRLSCSASGRTFGYNAMGWYRQAPGKEWELVAAIRTIGDSTYYADSVKGRFTISRDNAKNTVYLQMNSLKPEDTAVYYCAARNLRSRYDYWGQGTQVTVSS	high polyreactivity
QVQLVESGGGLVQAGGSLRLSCAASGNTFVSNAMGWYRQAPGKERELVAAIDSGGSTNYADSVKGRFTISRDNAKNTVYLQMNRLKPEDTAVYYCNRTSVYYYYWGQGTQVTVSS	low polyreactivity
QVQLVESGGGLVQAGGSLRLSCAASGRIYDRYDMVWYRQAPVKERELVAAISSGGSTYYADSVKGRFTISRDNAKNTVYLQMNSLKPEDTAVNNCAADRRSKYDYWGQGTQVTVSA	low polyreactivity

Source: the nanobody polyreactivity screen of Harvey et al. (2022)
